Test results published in patent publication US9492315B2, “Implantable therapeutic device” (ForSight Vision4, Inc., priority 2010, dated 2016).
Read-outs that look alike come from different tables or passages of the source.

Experiments:
[1] = Calculations of Lucentis concentrations in the vitreous, monkey model (bolus injections and device Simulations 1-5); conditions: parameter applied in Simulations 1-5 (column = simulation)
Excerpt: A model can be derived to describe the release rate as a function of time by relating the change of concentration in the reservoir to the release rate described above. This model assumes a solution of therapeutic agent where the concentration in the reservoir is uniform. In addition, the concentration in the receiving fluid or vitreous is considered negligible (cV=0). Solving the differential equation and rearrangement yields the following equations describing the concentration in the reservoir as a function of time, t, and volume of the reservoir, VR, for release of a therapeutic agent from a solution in a reservoir though a porous structure. cR=cR0exp((−DPA/FLVR)t) and Cumulative Release=1−cR/cR0
A bolus injection into the vitreous may be modeled as a single exponential with rate constant, k=0.693/half-life and a cmax=dose/Vv where Vv is the vitreous volume. […] The vitreous volume is approximately 1.5 mL for the rabbit and monkey and 4.5 mL for the human eye. […] This concentration decays to a vitreous concentration of 0.1 ug/mL after about a month.
For devices with extended release, the concentration in the vitreous changes slowly with time. […]
The first column used the measured Cmax (Gaudreault et al.) while the second used a calculated Cmax based on the dose and volume of the vitreous.

[2] = test system: Grade IV choroidal neovascularization (CNV) lesions; conditions: intravitreal injection, all doses tested, cynomolgus monkeys, laser photocoagulation model; cited from earlier work
[3] = humans (Lucentis package insert); cited from earlier work
[4] = Determined concentration profiles of Lucentis/ranibizumab in the vitreous humor for injections into the device or bolus (FIGS. 19B-19T, 32A-32E, 37); set-up: species or system human; conditions: parameter used for FIGS. 19K to 19P, half-life 9 days
Excerpt: The therapeutic device 100 can be tuned to deliver a target therapeutic concentration profile based on the volume of formulation injected into the device. The injected volume may comprise a substantially fixed volume, for example within about +/−30% of an intended predetermined target volume. The volume of the reservoir can be sized with the release rate index so as to release the therapeutic agent for an extended time substantially greater than the treatment time of a corresponding bolus injection. The device can also be tuned to release the therapeutic agent based on the half life of the therapeutic agent in the eye. The device volume and release rate index comprise parameters that can be tuned together based on the volume of formulation injected and the half life of the therapeutic agent in the eye. The following equations can be used to determine therapeutic device parameters suitable for tuning the device. Rate=Vr(dCr/dt)=−D(PA/TL)Cr where Rate=Rate of release of therapeutic agent from device Cr=concentration of therapeutic agent in reservoir Vr=volume of reservoir D=Diffusion constant PA/TL=RRI P=porosity A=area T=tortuosity=F=channel parameter. […]
These concentration profiles were determined with modeling and calculations as described herein. […]

[5] = test system: retinal thickness / lesion size in wet AMD; assay: Low dose Lucentis MIC study in wet AMD patients with OCT imaging (Example 18); assay type: in vivo, human
Excerpt: OCT (Optical Coherence Tomography) imaging was used to assess the condition of the region of the macula at the back surface of the treated eye. The OCT technique relies on the measurement of certain properties of light (e.g. echo time, intensity of reflection) that has been directed at the area of study and can measure very small amounts of reflected light. Because these cellular features are essentially transparent it is possible to use OCT methodology to generate three dimensional representations of the area.
The regions of interest were analyzed with a two dimensional representation of the cross section of the retinal wall at one longitudinal scan location of the OCT image. In these “OCT scan” images is it possible to interrogate very local areas of interest more specifically. The OCT scans were carefully selected to directly compare the thickness and anatomical structure of specific sites within a lesion, pre and post treatment, for the purpose of assessing the effect of injected drug including a reduction in sub-retinal fluid.
The OCT images were measured the day after injection and at 2-3 days post injection.
Further studies can be conducted by one or ordinary skill in the based on the teachings described herein to determine empirically the MIC for a sustained release device and cumulative effect of the drug over the time of release.

[6] = rabbit and monkey (Gaudreault et al.), cited from earlier work

MIC for a sustained release device ([5]; human patients, wet AMD): ≤ 1 ug per ml
Substance: ranibizumab [Lucentis]
Rate constant, k [1]: 0.264 day⁻¹
development of Grade IV CNV lesions [2]: completely inhibited
half-life in the vitreous [3]: ~220 h
Rate constant, k [4]: 0.077 day⁻¹
Treatment Effect Observed? ([5]; decrease in size of the lesion on OCT after low dose bolus, patient # in r2, dose in r4): Yes
half-life in the vitreous [6]: two to four
half-life in the vitreous ([6]; listed as ranibizumab): approximately 3 days
